Measurements reported in patent US20250302939A1, “VACCINE FOR HUMAN T-LY[…]-1” (The United States of America, as represented by the …, priority 2022, published 2025).

System: MHC class-I
Assay: Surface expression of MHC class I in transduced Jurkat T-cells (FACS)
Format: cell-based, human
Settings: HIV nef as positive control
Description: FIGS. 5A-5E. (FIG. 5A) Amino acids alignment between Rex-orfI protein (p16) (SEQ ID NO: 10) and p12/p8 (SEQ ID NO: 11). Amino acids changes are underlined. Jurkat T-cells (FIG. 5B) or THP-1 cells (FIG. 5C) were transduced with lentiviral GFP vector expressing p12/p8 HA tag, or p16-HA tag or only GFP, as a control. Forty-eight hours post-transfection proteins were extracted and immunoblot with anti HA antibody was performed. Jurkat T-cells were transduced with GFP-lentiviruses expressing p16, Nef, or only GFP as a control. Cells were stained with HLA-ABC antibody (PE/Cy5 anti-human HLA-A,B,C clone w6/32 BioLegend) and analyzed by FACS. (FIG. 5D) Protein expression was verified by Immunoblot using an anti HA antibody and B-actin as control (cell signaling and appropriate secondary antibodies purchased from Santa Cruz Biotechnology) (FIG. 5E).
The cDNA synthesized from the rex-orf-I mRNA (FIG. 5A) encodes upon transfection a single protein band (p16) in Jurkat T-cells (FIG. 5B and FIG. 5C). In the human myeloid cell line THP-1 further processing of p16 results in two lower protein bands (FIGS. 5D and 5E).

B1: p16: HTLV-1C protein encoded by the rex-orf-I mRNA (SEQ ID NO: 10) (protein, listed as Homo sapiens)
chain: MPKTRRGPRRSQRKRPPTPWQPPPFSLQGLCLALQLSSITINPQLRHSFSSSTTLPCLLLPSSLFCLSPLALAALLFLQFSPGAVGGLLLRPPPAPSLLLSLPFQKLSNLFLLLFFPLSFSLSLLLGPSPPITMRFPARWRFLFRRAPSQPA
effect on surface expression of MHC class I: does not affect surface expression of MHC-class I
